Assay results reported in US20070166719A1 (NEW ENGLAND BIOLABS, published 2007).

Target: T1, R-M-CspCI endonuclease-methyltransferase subunit (Citrobacter species 2144 (NEB#1398))
T1 construct: also called large subunit; R-M-subunit
T1 chain: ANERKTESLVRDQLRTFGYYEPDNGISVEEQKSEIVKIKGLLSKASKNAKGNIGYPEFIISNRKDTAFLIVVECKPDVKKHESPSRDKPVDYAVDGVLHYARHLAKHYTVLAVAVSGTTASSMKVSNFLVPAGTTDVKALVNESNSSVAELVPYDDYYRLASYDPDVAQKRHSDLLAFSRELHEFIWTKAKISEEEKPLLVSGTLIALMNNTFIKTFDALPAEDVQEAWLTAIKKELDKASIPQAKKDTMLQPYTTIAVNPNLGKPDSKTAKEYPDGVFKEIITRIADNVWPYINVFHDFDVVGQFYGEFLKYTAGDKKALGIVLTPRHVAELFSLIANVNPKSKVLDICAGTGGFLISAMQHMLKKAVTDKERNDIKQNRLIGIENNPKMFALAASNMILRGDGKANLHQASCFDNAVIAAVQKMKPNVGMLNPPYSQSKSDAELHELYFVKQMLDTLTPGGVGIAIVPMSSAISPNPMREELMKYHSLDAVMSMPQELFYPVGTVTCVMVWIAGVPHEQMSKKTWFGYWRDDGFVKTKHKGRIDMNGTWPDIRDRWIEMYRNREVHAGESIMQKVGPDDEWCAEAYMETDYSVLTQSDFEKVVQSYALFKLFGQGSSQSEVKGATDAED
Test: HPLC of purified CspCI; molar ratio derived from the mass ratio 1:0.47

B1: CspCI specificity subunit (S-CspCI) (other)
chain: PKINDLFHLEYGHSLELNRLEQSTAADAVNFVGRAARNNGVTARVAPPPNLKPAAAGTISVALGGQGGAGVAFLQPRPYFCGRDVMVLTPKKHMTDQEKLWWVMCITANRFRFGFGRQANRTLKDLNLPAPQKTPSWVHTANPDAYQGVRSPASVHPVGTLAVSNWKAFILQDLFTIRKGQRLTKANMLPGTVPYIGASDTSNGVTAHIGQKPIHEGGTISVTYDGSIAEAFYQPSPFWASDAVNVLYPKGFTLTPATALFICAIIRMEKYRFNYGRKWHLERMRETVIRLPATATGAPDWDFMEKYIKTLPYSSQLQ
notes: also called small subunit; S-subunit
- molar ratio (70 kDa : 35 kDa protein in the purified enzyme): 1.06 mol small subunit per mol large subunit
